Test results taken from patent publication US20140271457A1 (AbbVie / Abbott, published 2014).

Each binder was assayed against Recombinant Human IL-13 (human, UniProt P35225 35-146, limits assumed) (assay: Biacore SPR).
Protocol: The BIACORE assay (GE, Healthcare Piscataway, N.J.) determined the affinity of antibodies or DVD-Ig with kinetic measurements of on-rate and off-rate constants. Binding of antibodies or DVD-Ig proteins to a target antigen (for example, a purified recombinant target antigen) was determined by surface plasmon resonance-based measurements with a Biacore T200 using running HBS-EP+buffer from GE Healthcare at 25° C. All chemicals were obtained from GE Healthcare or otherwise from a different source as described in the text. For example, approximately 5000 RU of goat anti-mouse IgG, (Fcγ), fragment specific polyclonal antibody (Pierce Biotechnology Inc, Rockford, Ill.) diluted in 10 mM sodium acetate (pH 4.5) was directly immobilized across a CM5 research grade biosensor chip using a standard amine coupling kit according to manufacturer's instructions. Unreacted moieties on the biosensor surface were blocked with ethanolamine. Modified carboxymethyl dextran surface in flowcell 1 was used as a reference surface. Rate constants were derived by making kinetic binding measurements at different antigen concentrations ranging from 0.8-100 nM. Binding was recorded as a function of time and kinetic rate constants were calculated. In this assay, association rate was evaluated for 5 min and dissociation was monitored for 10 min. For kinetic screening analysis, rate equations derived from the 1:1 binding model were fitted simultaneously to association and dissociation phases of all injections (using global fit analysis with Rmax fit locally to account for capture variations) with the use of Biaevaluation software. Purified antibodies or DVD-Ig proteins were diluted in HEPES-buffered saline for capture across goat anti-mouse IgG specific reaction surfaces. Antibodies or DVD-Ig proteins to be captured as a ligand were injected over reaction matrices at a flow rate of 5 μl/minute. The association and dissociation rate constants, kₒₙ (M⁻¹ s⁻¹) and koff (s⁻¹) were determined under a continuous flow rate of 50 μl/minute. Rate constants were derived by making kinetic binding measurements at different antigen concentrations ranging from 0.8-100 nM. Binding was recorded as a function of time and kinetic rate constants were calculated. In this assay, association rate was evaluated for 5 min and dissociation was monitored for 10 min.

Recombinant Human IL-13, sequence (P35225 35-146 limits assumed): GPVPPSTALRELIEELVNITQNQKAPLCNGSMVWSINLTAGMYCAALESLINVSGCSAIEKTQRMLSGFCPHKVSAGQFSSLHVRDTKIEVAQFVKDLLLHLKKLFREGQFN

| Kd [nM] | koff [s⁻¹] | kon [M⁻¹ s⁻¹] | Binder |
| --- | --- | --- | --- |
| 0.14 | 1.5e-05 | 110000 | DVD3008 (bispecific antibody, IgG1, DVD-Ig; wt hIgG1 + kappa constants) VH: EVQLVQSGAEVKKPGASVKVSCKASGYTFNNYGIIWVRQAPGQGLEWMGWINTYTGKPTYAQKFQGRVTMTTDTSTSTAYMELSSLRSEDTAVYYCARKLFNTVAVTDNAMDYWGQGTTVTVSSGGGGSGGGGSEVTLRESGPGLVKPTQTLTLTCTLYGFSLSTSDMGVDWIRQPPGKGLEWLAHIWWDDVKRYNPALKSRLTISKDTSKNQVVLKLTSVDPVDTATYYCARTVSSGYIYYAMDYWGQGTLVTVSS VL: DIQMTQSPSSLSASVGDRVTITCRASQDIENYLNWYQQKPGKAPKLLIYYTSRLQSGVPSRFSGSGSGTDFTLTISSLQPEDFATYFCQQGNTQPPTFGQGTKLEIKRGGSGGGGSGDIQMTQSPSSLSASVGDRVTISCRASQDIRNYLNWYQQKPGKAPKLLIFYTSKLHSGVPSRFSGSGSGTDYTLTISSLQPEDIATYYCQQGLTPPLTFGGGTKVEIKR |
| 0.038 | 2e-06 | 52000 | DVD3083 (bispecific antibody, IgG1, DVD-Ig; wt hIgG1 + kappa constants) VH: EVQLVESGGGLVQPGGSLRLSCAASGFTFSNYGVTWVRQAPGKGLEWVSMIWADGSTHYASSVKGRFTISRDNSKNTLYLQMNSLRAEDTAVYYCAREWQHGPVAYWGQGTLVTVSSGGGGSGGGGSEVQLVQSGAEVKKPGASVKVSCKASGYTFTTYGVSWVRQAPGQGLEWMGEIYPGNYNTYYNEKFRGRVTMTTDTSTSTAYMELRSLRSDDTAVYYCARWRTSYFSDYGYFDYWGQGTTVTVSS VL: DIQMTQSPSSLSASVGDRVTITCRASQLVSSAVAWYQQKPGKAPKLLIYWASARHTGVPSRFSGSGSGTDFTLTISSLQPEDFATYYCQQHYKTPFTFGQGTKLEIKRGGSGGGGSGDVVMTQSPLSLPVTLGQPASISCRSSQSLVHSHGNTYLHWYQQRPGQSPRLLIYTVSNRFSGVPDRFSGSGSGTDFTLKISRVEAEDVGVYYCSQSTHVPYTFGGGTKVEIKR |
| < 0.02 | < 1e-06 | 51000 | DVD3093 (bispecific antibody, IgG1, DVD-Ig; wt hIgG1 + kappa constants) VH: EVQLVESGGGLVQPGGSLRLSCAASGFTFSNYGVEWVRQAPGKGLEWVSGIWADGSTHYADTVKSRFTISRDNSKNTLYLQMNSLRAEDTAVYYCAREWQHGPVAYWGQGTLVTVSSGGGGSGGGGSEVQLVQSGAEVKKPGASVKVSCKASGYTFTTYGVSWVRQAPGQGLEWMGEIYPGNYNTYYNEKFRGRVTMTTDTSTSTAYMELRSLRSDDTAVYYCARWRTSYFSDYGYFDYWGQGTTVTVSS VL: DIQMTQSPSSLSASVGDRVTITCKASQLVSSAVAWYQQKPGKAPKLLIYWASTLHTGVPSRFSGSGSGTDFTLTISSLQPEDFATYYCQQHYRTPFTFGQGTKLEIKRGGSGGGGSGDVVMTQSPLSLPVTLGQPASISCRSSQSLVHSHGNTYLHWYQQRPGQSPRLLIYTVSNRFSGVPDRFSGSGSGTDFTLKISRVEAEDVGVYYCSQSTHVPYTFGGGTKVEIKR |
| 0.5 | 6.2e-05 | 120000 | DVD2737 (bispecific antibody, IgG1, DVD-Ig; wt hIgG1 + kappa constants) VH: EVQLVESGGGLVQPGGSLRLSCAASGFTFSNYGVEWVRQAPGKGLEWVSGIWADGSTHYADTVKSRFTISRDNSKNTLYLQMNSLRAEDTAVYYCAREWQHGPVAYWGQGTLVTVSSASTKGPSVFPLAPEVTLRESGPGLVKPTQTLTLTCTLYGFSLSTSDMGVDWIRQPPGKGLEWLAHIWWDDVKRYNPALKSRLTISKDTSKNQVVLKLTSVDPVDTATYYCARTVSSGYIYYAMDYWGQGTLVTVSS VL: DIQMTQSPSSLSASVGDRVTITCKASQLVSSAVAWYQQKPGKAPKLLIYWASTLHTGVPSRFSGSGSGTDFTLTISSLQPEDFATYYCQQHYRTPFTFGQGTKLEIKRTVAAPDIQMTQSPSSLSASVGDRVTISCRASQDIRNYLNWYQQKPGKAPKLLIFYTSKLHSGVPSRFSGSGSGTDYTLTISSLQPEDIATYYCQQGLTPPLTFGGGTKVEIKR |
| 0.012 | 1.1e-06 | 87000 | DVD3084 (bispecific antibody, IgG1, DVD-Ig; wt hIgG1 + kappa constants) VH: EVQLVESGGGLVQPGGSLRLSCAASGFTFSNYGVTWVRQAPGKGLEWVSMIWADGSTHYASSVKGRFTISRDNSKNTLYLQMNSLRAEDTAVYYCAREWQHGPVAYWGQGTLVTVSSASTKGPEVQLVQSGAEVKKPGASVKVSCKASGYTFTTYGVSWVRQAPGQGLEWMGEIYPGNYNTYYNEKFRGRVTMTTDTSTSTAYMELRSLRSDDTAVYYCARWRTSYFSDYGYFDYWGQGTTVTVSS VL: DIQMTQSPSSLSASVGDRVTITCRASQLVSSAVAWYQQKPGKAPKLLIYWASARHTGVPSRFSGSGSGTDFTLTISSLQPEDFATYYCQQHYKTPFTFGQGTKLEIKRTVAAPDVVMTQSPLSLPVTLGQPASISCRSSQSLVHSHGNTYLHWYQQRPGQSPRLLIYTVSNRFSGVPDRFSGSGSGTDFTLKISRVEAEDVGVYYCSQSTHVPYTFGGGTKVEIKR |
| 0.067 | 5.9e-06 | 89000 | DVD3094 (bispecific antibody, IgG1, DVD-Ig; wt hIgG1 + kappa constants) VH: EVQLVESGGGLVQPGGSLRLSCAASGFTFSNYGVEWVRQAPGKGLEWVSGIWADGSTHYADTVKSRFTISRDNSKNTLYLQMNSLRAEDTAVYYCAREWQHGPVAYWGQGTLVTVSSASTKGPEVQLVQSGAEVKKPGASVKVSCKASGYTFTTYGVSWVRQAPGQGLEWMGEIYPGNYNTYYNEKFRGRVTMTTDTSTSTAYMELRSLRSDDTAVYYCARWRTSYFSDYGYFDYWGQGTTVTVSS VL: DIQMTQSPSSLSASVGDRVTITCKASQLVSSAVAWYQQKPGKAPKLLIYWASTLHTGVPSRFSGSGSGTDFTLTISSLQPEDFATYYCQQHYRTPFTFGQGTKLEIKRTVAAPDVVMTQSPLSLPVTLGQPASISCRSSQSLVHSHGNTYLHWYQQRPGQSPRLLIYTVSNRFSGVPDRFSGSGSGTDFTLKISRVEAEDVGVYYCSQSTHVPYTFGGGTKVEIKR |
| 0.36 | 3.2e-05 | 87000 | DVD3009 (bispecific antibody, IgG1, DVD-Ig; wt hIgG1 + kappa constants) VH: EVQLVQSGAEVKKPGASVKVSCKASGYTFNNYGIIWVRQAPGQGLEWMGWINTYTGKPTYAQKFQGRVTMTTDTSTSTAYMELSSLRSEDTAVYYCARKLFNTVAVTDNAMDYWGQGTTVTVSSASTKGPEVTLRESGPGLVKPTQTLTLTCTLYGFSLSTSDMGVDWIRQPPGKGLEWLAHIWWDDVKRYNPALKSRLTISKDTSKNQVVLKLTSVDPVDTATYYCARTVSSGYIYYAMDYWGQGTLVTVSS VL: DIQMTQSPSSLSASVGDRVTITCRASQDIENYLNWYQQKPGKAPKLLIYYTSRLQSGVPSRFSGSGSGTDFTLTISSLQPEDFATYFCQQGNTQPPTFGQGTKLEIKRTVAAPDIQMTQSPSSLSASVGDRVTISCRASQDIRNYLNWYQQKPGKAPKLLIFYTSKLHSGVPSRFSGSGSGTDYTLTISSLQPEDIATYYCQQGLTPPLTFGGGTKVEIKR |
| 0.13 | 0.00013 | 950000 | DVD2691 (bispecific antibody, IgG1, DVD-Ig; wt hIgG1 + kappa constants) VH: EVTLRESGPGLVKPTQTLTLTCTLYGFSLSTSDMGVDWIRQPPGKGLEWLAHIWWDDVKRYNPALKSRLTISKDTSKNQVVLKLTSVDPVDTATYYCARTVSSGYIYYAMDYWGQGTLVTVSSASTKGPEVQLVESGGGLVQPGGSLRLSCAASGFTFSNYGVTWVRQAPGKGLEWVSMIWADGSTHYASSVKGRFTISRDNSKNTLYLQMNSLRAEDTAVYYCAREWQHGPVAYWGQGTLVTVSS VL: DIQMTQSPSSLSASVGDRVTISCRASQDIRNYLNWYQQKPGKAPKLLIFYTSKLHSGVPSRFSGSGSGTDYTLTISSLQPEDIATYYCQQGLTPPLTFGGGTKVEIKRTVAAPSVFIFPPDIQMTQSPSSLSASVGDRVTITCRASQLVSSAVAWYQQKPGKAPKLLIYWASARHTGVPSRFSGSGSGTDFTLTISSLQPEDFATYYCQQHYKTPFTFGQGTKLEIKR |
